The numbers were not newly measured in publication PMC5982148, which cites them from elsewhere.

What all share (test): SPR
On the technique in general: Surface plasmon resonance follows binding to a sensor surface in real time, without labels.

Series [1] deals with CYP2C9 (Homo sapiens) (UniProt P11712).
The target of series [2] is glyceraldehyde-3-phosphate dehydrogenase (Homo sapiens) (UniProt P04406).
The target of series [3] is CYP1B1 (Homo sapiens) (UniProt Q16678).
In series [4] the target is NADPH-adrenodoxin reductase (Homo sapiens) (UniProt P22570).
For series [5], the target named is SMAD4 (Homo sapiens) (UniProt Q13485).
Series [6] addresses cytochrome b5 (Homo sapiens) (UniProt P00167).

pKd: −log10 of the molar value.

UniProt P22570, sequence (P22570 33-491): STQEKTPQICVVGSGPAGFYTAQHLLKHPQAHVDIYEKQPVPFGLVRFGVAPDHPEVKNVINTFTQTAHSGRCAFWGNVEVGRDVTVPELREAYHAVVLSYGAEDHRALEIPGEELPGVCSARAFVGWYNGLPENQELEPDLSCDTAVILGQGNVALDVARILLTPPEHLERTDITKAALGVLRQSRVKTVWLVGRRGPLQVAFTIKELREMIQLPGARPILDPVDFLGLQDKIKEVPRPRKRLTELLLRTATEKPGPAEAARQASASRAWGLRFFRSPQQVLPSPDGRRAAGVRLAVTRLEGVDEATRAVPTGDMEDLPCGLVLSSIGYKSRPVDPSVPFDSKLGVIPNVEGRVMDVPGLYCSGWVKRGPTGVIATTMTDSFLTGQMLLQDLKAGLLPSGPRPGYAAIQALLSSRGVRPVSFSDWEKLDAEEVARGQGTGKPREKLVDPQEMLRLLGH
UniProt P11712, sequence (P11712 whole entry): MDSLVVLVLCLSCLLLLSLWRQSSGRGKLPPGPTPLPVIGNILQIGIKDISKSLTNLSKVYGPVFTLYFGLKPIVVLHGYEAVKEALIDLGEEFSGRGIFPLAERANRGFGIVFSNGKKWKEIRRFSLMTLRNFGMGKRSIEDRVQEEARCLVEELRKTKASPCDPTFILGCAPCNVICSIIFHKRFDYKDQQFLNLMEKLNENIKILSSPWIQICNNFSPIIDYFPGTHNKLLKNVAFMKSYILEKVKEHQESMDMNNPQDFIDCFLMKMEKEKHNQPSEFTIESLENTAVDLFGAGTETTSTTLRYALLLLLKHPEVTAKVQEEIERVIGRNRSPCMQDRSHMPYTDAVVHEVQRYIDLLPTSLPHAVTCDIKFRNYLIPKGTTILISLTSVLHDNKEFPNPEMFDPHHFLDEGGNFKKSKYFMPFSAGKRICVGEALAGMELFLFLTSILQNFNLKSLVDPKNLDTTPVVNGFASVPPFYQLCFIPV
UniProt Q16678, sequence (Q16678 whole entry): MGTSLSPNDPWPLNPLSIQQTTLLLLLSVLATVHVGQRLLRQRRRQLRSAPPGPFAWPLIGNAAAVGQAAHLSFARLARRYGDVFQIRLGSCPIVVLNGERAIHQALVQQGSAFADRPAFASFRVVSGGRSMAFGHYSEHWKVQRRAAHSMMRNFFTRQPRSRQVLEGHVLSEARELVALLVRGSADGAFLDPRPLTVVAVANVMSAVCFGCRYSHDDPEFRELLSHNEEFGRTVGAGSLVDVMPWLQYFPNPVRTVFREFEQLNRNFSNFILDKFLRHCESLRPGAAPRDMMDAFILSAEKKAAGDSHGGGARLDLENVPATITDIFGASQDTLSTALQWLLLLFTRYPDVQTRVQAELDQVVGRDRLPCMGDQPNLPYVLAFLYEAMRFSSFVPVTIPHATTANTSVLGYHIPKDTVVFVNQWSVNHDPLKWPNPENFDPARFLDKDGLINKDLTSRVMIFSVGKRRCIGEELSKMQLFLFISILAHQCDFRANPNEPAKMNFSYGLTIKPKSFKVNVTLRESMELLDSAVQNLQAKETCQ
UniProt P04406, sequence (P04406 2-335): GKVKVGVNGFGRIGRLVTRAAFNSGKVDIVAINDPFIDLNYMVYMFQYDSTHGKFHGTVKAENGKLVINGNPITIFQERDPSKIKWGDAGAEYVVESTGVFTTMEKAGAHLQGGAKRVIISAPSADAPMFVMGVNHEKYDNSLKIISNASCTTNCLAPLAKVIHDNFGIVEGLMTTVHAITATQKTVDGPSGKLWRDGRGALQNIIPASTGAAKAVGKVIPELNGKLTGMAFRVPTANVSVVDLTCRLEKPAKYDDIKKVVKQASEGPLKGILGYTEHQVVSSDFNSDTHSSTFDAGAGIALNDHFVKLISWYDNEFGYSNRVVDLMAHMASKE
UniProt Q13485, sequence (Q13485 whole entry): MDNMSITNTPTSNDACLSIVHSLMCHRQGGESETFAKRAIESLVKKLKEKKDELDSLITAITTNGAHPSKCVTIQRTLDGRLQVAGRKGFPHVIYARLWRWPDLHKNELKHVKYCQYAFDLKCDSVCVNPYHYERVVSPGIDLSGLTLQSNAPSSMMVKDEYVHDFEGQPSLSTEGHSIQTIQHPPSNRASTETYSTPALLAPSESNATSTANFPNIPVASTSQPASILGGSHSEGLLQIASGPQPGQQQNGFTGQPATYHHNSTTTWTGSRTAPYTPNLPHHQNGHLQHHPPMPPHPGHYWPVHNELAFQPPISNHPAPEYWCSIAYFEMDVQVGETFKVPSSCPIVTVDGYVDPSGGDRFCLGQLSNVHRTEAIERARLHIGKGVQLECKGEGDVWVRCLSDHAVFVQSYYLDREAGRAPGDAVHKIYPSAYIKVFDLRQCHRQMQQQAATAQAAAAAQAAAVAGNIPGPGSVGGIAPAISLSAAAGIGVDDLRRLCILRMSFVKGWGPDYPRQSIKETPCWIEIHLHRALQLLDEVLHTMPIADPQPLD

For the substance cytochrome b5 (from UniProt P00167), the figures for the pKd in series [1], in series [2] and in series [3] were 5.96, 7.00 and 7.15, respectively.

As to ferrochelatase (from UniProt P22830), the pKd in series [4] was 4.89; in series [5] it was 5.80; in series [6], 5.82.

As a reminder, the pKd is the negative decadic logarithm of the Kd, by convention in mol/L.
